{
  "source": "patent US20230151434A1",
  "about": "“REAWAKENING OF DORMANT TUMOR CELLS BY MODIFIED LIPIDS DERIVED FROM STRESS ACTIVATED NEUTROPHILS” (The Wistar Institute of Anatomy and Biology, priority 2020, published 2023)",
  "molecules": {"B1": {"name": "S100A8/A9: recombinant S100A8/A9, heterocomplex of two S100 calcium binding proteins (calprotectin) (protein, UniProt P27005 2-89; P31725 2-113, looked up)", "Protein S100-A8": "PSELEKALSNLIDVYHNYSNIQGNHHALYKNDFKKMVTTECPQFVQNINIENLFRELDINSDNAINFEEFLAMVIKVGVASHKDSHKE", "Protein S100-A9": "ANKAPSQMERSITTIIDTFHQYSRKEGHPDTLSKKEFRQMVEAQLATFMKKEKRNEALINDIMEDLDTNQDNQLSFEECMMLMAKLIFACHEKLHENNPRGHGHSHGKGCGK"}},
  "key": {"KPr^p53A cells": {"test_system": "KPr^p53A cells", "experiment": "In vitro co-culture of dormant tumor cells with PMN (count of GFP+ cells)", "assay_type": "cell-based, mouse", "description": "(§1) The KPr cell line (16) was maintained in RPMI 1640 medium (Corning) and 10% FBS (Gibco). Treatment of KPr cells with 250 nM 4-hydroxytamoxifen (4-OHT, Sigma-Aldrich) induced p53 expression. p53-induced cells (KPr^p53) were stained with CellTrace dye for 20 min at 37° C. according to the manufacturer's instructions (Life Technologies) and seeded at 8500 cells/cm^2 in culture in a T175 tissue culture-treated flask (Gibco). After 7 days, cells were detached and sorted based on the CellTrace dye intensity as proliferating (KPr^p53P, with lower CellTrace) and arrested cells (KPr^p53A, with higher-intensity CellTrace; see FIG. 1A for representative image). LL2 cells were seeded at 1000 cells/cm2 and treated for 3 days with 2.5 μM cisplatin (Selleckchem). After that, cells were stained with CellTrace and sorted as described above. OVCAR3 cell senescence was induced by treating 5×10^4 cells/cm2 with 0.5 μM cisplatin for 72 hours. After that time, cells were stained with CellTrace and sorted. A549 senescence was induced by 72-hour treatment with 4 μM cisplatin and cells were sorted after staining with CellTrace. Time points for sorting were chosen as the best to observe separation between arrested and proliferating cells. Cells were sorted on Astrios (Beckman Coulter) or Melody (Becton Dickinson) fluorescence-activated cell sorters.\n(§2) Arrested tumor cells were plated at 100 cells/cm^2 in a 48-well tissue culture-treated plate (Costar) for coculture experiments. After 24 hours, PMN-MDSC or PMN were added at indicated ratios. Cocultures were maintained for 48 hours in RPMI 1640+10% FBS in the presence of mouse recombinant GM-CSF (10 ng/ml; Rocky Hill) to ensure neutrophil viability. All control conditions were in the presence of media with GM-CSF. All indicated supplements (NE, S100A8/A9, BGJ398, ICI 118-551, IL-2, MPO inhibitor, LPS, lipids, PMA, and thapsigargin 1 μM) were added to culture at the same time as PMN and maintained for 48 hours. After that, media were removed and replaced by fresh media without GM-CSF. After 1 week, GFP^+ cells in wells were counted via an inverted microscope. When lipid extracts were used, lipids were added to dormant cells in culture at 1 to 0.05 or 0.01 nmol as indicated in each experiment."}, "PMN": {"test_system": "PMN", "experiment": "PMN viability (proportion of live PMN)", "assay_type": "cell-based, mouse", "description": "FIG. 2A-FIG. 2K show neutrophil-mediated reactivation of dormant cells is regulated by stress-induced S100A8/A9. (FIG. 2A) Fold increase in the number of KPr^p53A cells cultured in the presence of PMN and S100A8/A9 or indicated cytokines relative to KPr^p53A cells cultured with PMN. Three independent experiments with 16 replicates were performed. Mean±SEM of one experiment is shown. (FIG. 2B) Fold increase in the number of KPr^p53A cells cultured in the presence of PMN and LPS relative to KPr^p53A cells cultured with PMN or alone. Means±SEM of three independent experiments with 16 replicates each are shown. (FIG. 2C) Fold increase in the number of KPr^p53A cells cultured in the presence of S100A8/A9 alone, PMN and S100A8/A9, or PMN-MDSC relative to KPr^p53A cultured alone. Means±SEM of 10 independent experiments with 16 replicates each are shown. (FIG. 2D) S100A8/A9 protein produced by PMN after treatment with indicated hormones or LPS was measured by ELISA. PMN-MDSC were isolated from spleens of Lewis lung carcinoma tumor-bearing mice. Means±SEM and results of each independent experiment with three replicates are shown. (FIG. 2E) S100A8/A9 protein secreted in vitro from PMN and PMN treated with NE with or without ICI-118; […] as measured by ELISA. Means±SEM and results of independent experiment with three replicates are shown. (FIG. 2F) Flow cytometry staining of ADRB2 receptor (dark gray) on PMN isolated from mouse spleen. Isotype control, light gray. Representative histogram of three experiments is shown. (FIG. 2G) Fold increase in the number of KPr^p53A cells cultured with PMN alone, NE alone, PMN and NE together, and PMN and NE plus ICI-118; 553 relative to KPr^p53A cells cultured alone (Ctrl). Ten independent experiments with 16 replicates for each experiment were performed. Means±SEM in a representative experiment are shown. (FIG. 2H) Number of KPr^p53A cells cultured in the presence of PMN from S100a9KO mice alone or together with NE relative to KPr^p53A cells cultured alone (ctrl). Means±SEM are reported for 16 replicates. (FIG. 2I) Percentage of live PMN after overnight incubation with NE, S100A8/A9, or LPS. Each dot represents the average of three experimental replicates of one single experiment. Means±SEM are shown for each group. (FIG. 2J) Fold increase in number of LL2^CisA cells cultured with PMN alone or together with S100A8/A9 or NE relative to LL2^CisA cultured alone (Ctrl). Means±SEM of three independent experiments with 16 replicates each are shown. […] In all panels, P values were calculated using ANOVA test with correction for multiple comparisons.\nFIG. 11A-FIG. 11G show the mechanism of dormant tumor cell reactivation. […] P values were calculated by ANOVA test with correction for multiple comparisons. […]"}, "[1]": {"test_system": "LL2^cisA and AT-3^DoxA cells", "experiment": "In vitro co-culture of chemotherapy-arrested mouse tumor cells with PMN", "assay_type": "cell-based", "description": "as §1, §2"}},
  "data": [
    {"molecule": "Cc1ccc(OCC(O)C(C)NC(C)C)c2c1CCC2", "note": "(centres unmarked) [ICI-118,551]", "values": [
      {"measurement": "proliferation of KPr^p53A cells induced by PMN and NE, effect of β-blocker", "setting": "KPr^p53A cells; PMN and NE plus ICI-118,551", "value": "this effect was abrogated"},
      {"measurement": "cytotoxic effect on PMN", "setting": "PMN; proportion of live PMN after exposure", "value": "no cytotoxic effect on PMN"},
      {"measurement": "NE- and PMN-induced reactivation of dormant mouse tumor cells, effect of β-blocker", "setting": "[1]; PMN and NE plus ICI-118,551", "value": "this effect was abrogated"}
    ]},
    {"molecule": "B1", "values": [
      {"measurement": "reactivation/proliferation of KPr^p53A cells, supplement alone", "setting": "KPr^p53A cells; absence of PMN", "value": "no effect"},
      {"measurement": "reactivation of KPr^p53A cells cultured with MON plus supplement", "setting": "KPr^p53A cells; monocytes instead of PMN", "value": "failed to reactivate KPr^p53A cells"},
      {"measurement": "reactivation/proliferation of KPr^p53A cells cultured with PMN plus supplement", "setting": "KPr^p53A cells; supplement added with PMN, LPS 0.5 to 2 μg/ml", "value": "enabled PMN to induce proliferation of KPr^p53A cells"},
      {"measurement": "PMN viability", "setting": "PMN", "value": "did not affect PMN viability"},
      {"measurement": "proliferation of arrested mouse tumor cells cultured with mouse PMN plus supplement", "setting": "[1]; LL2^cisA, AT-3^DoxA", "value": "activated proliferation"}
    ]}
  ]
}
